What all share (details): both partners purified
Experiment [1] addresses T1, Biotinylated CYP143 with Avi-tag at the C-terminus (M. tuberculosis, UniProt P9WPL3 2-393, biotin (on the Avi-tag)).
T1 construct: also called CYP143A1; Rv1785c; not shown: Avi-tag, C-terminal, kept
Kind of experiment: SPR.

The target in experiment [2] is T1, Biotinylated CYP143 with Avi-tag at the …. The experiment is described as follows: SPR; as a1, sensorgrams at 10, 15, 20, 25, 30 and 35°C; enthalpy from the slope of a Van't Hoff plot.
Experiment [3] concerns the target T2, CYP143 part of the FdxE-CYP143 fusion protein (M. tuberculosis, UniProt P9WPL3 2-393).
T2 construct: also called fusion FdxE–CYP143
Kind of experiment: crystal structure; FdxE fused via a linker to the N-terminus of CYP143 on one chain; 1.6 Å; crystals in .2 M sodium chloride, .1 M Bis-Tris pH 6.0, 25% PEG3350, 20°C.

T1 sequence (P9WPL3 2-393): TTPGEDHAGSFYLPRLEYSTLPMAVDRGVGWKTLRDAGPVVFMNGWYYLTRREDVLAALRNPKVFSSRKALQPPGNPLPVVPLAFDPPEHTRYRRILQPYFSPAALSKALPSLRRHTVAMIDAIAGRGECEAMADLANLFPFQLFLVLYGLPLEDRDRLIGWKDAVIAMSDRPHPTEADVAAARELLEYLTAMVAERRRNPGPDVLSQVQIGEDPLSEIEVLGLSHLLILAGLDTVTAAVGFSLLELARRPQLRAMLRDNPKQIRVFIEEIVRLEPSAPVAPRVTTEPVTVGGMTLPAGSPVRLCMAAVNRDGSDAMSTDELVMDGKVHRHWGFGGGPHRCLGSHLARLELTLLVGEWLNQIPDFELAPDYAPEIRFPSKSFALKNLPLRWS
T2 sequence (P9WPL3 2-393): as above

B1: FdxE (Rv1786), 3Fe-4S ferredoxin of M. tuberculosis (natural protein)
chain: MKVRLDPSRCVGHAQCYAVDPDLFPIDDSGNSILAEHEVRPEDMQLTRDGVAACPEMALILEEDDAD
notes: also called ferredoxin Rv1786; mtb_1786
In experiment [1], B1 registered a Kd of 84 ± 2 nM, a koff of 0.0423 ± 0.0005 s⁻¹ and a kon of 502000 M⁻¹ s⁻¹. This molecule also showed a dH in experiment [2] of -10.8 ± 2.15 kcal/mol.

B2: FdxE part of the FdxE-CYP143 fusion protein (domain or fragment)
chain: KVRLDPSRCVGHAQCYAVDPDLFPIDDSGNSILAEHEVRPEDMQLTRDGVAACPEMALILEEDDAD
notes: also called fusion FdxE–CYP143; not shown: His-tag, N-terminal, kept
For the molecule B2, the binding result in experiment [3] is listed as “binds”.

Values taken from paper PMC9868604, “Structural insights into 3Fe–4S ferredoxins diversity in M. tuberculosis highlighted by a first redox complex with P450” (Frontiers in Molecular Biosciences, 2022).
